Laboratory results from patent US20210095028A1 (NANJING LEGEND BIOTECH, published 2021).

Legend:
[1] = target: T1, human TIGIT over-expressed on cells (human, UniProt Q495A1 22-244); experiment: cell-based or functional assay
T1 sequence: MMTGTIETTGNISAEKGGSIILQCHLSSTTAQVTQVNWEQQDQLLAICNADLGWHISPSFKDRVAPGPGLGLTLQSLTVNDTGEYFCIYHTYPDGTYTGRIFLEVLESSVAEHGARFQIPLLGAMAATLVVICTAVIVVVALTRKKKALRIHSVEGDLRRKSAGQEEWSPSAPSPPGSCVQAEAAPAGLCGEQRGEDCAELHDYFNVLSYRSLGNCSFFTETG

[2] = target: T2, cynomolgus TIGIT over-expressed on CHO-K1 cells (cynomolgus, UniProt A0A7N9I9V4 89-312); experiment: FACS, CHO-K1 cells over-expressing cynomolgus TIGIT
T2 construct: whole, on cells; also called CHO-K1/cynomolgus TIGIT cells
T2 sequence (A0A7N9I9V4 entry or part of it): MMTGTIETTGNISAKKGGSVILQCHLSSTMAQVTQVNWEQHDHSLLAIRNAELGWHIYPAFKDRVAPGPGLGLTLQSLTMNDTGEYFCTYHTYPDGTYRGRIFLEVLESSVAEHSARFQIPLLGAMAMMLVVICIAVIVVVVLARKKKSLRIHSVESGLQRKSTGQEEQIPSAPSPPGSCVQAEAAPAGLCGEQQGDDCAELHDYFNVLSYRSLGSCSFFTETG
Procedure: (§1) Binding affinities of the chimeric anti-human TIGIT monoclonal antibodies and the humanized anti-human TIGIT monoclonal antibodies to human or cynomolgus TIGIT over-expressed on CHO-K1 cells were determined using a fluorescence-activated cell sorting (FACS)-based assay. […] The mixture was equilibrated for 30 minutes at room temperature and washed three times with FACS buffer (PBS containing 1% BSA). iFluor labeled goat anti-mouse IgG as the secondary antibody was added and incubated at room temperature for 45 min. Finally, the cells were washed 3 time with PBS, and the signal was read by FACS BD Calibur. Data was analyzed with PRISM™ (GraphPad Software, San Diego, Calif.) using non-linear regression and EC₅₀ values were calculated.

[3] = target: T1, human TIGIT over-expressed on cells; experiment: competition FACS, CHO cells expressing human TIGIT; competitor PVR recombinant protein
Procedure: (§2) To assess the competitive binding on human TIGIT between the chimeric anti-human TIGIT monoclonal antibodies or the humanized anti-human TIGIT monoclonal antibodies and PVR, the chimeric anti-human TIGIT monoclonal antibody or the humanized anti-human TIGIT monoclonal antibody samples were prepared (starting at 300 nM, ≤3-fold serial dilution with 10 concentrations). CHO cells expressing human TIGIT were dissociated from adherent culture flasks and mixed with varying concentrations of each chimeric anti-human TIGIT monoclonal antibody or the humanized anti-human TIGIT monoclonal antibody and 5 μg/ml […] fusion protein having a biotin label. The mixture was equilibrated for 30 minutes at room temperature and washed three times with FACS buffer (PBS containing 1% BSA). PE/Cy5 Streptavidin secondary antibody was then added to the mixtures and incubated for 15 minutes at room temperature. Subsequently, the cells were washed with FACS buffer and analyzed by flow cytometry. Data was analyzed with PRISM™ (GraphPad Software, San Diego, Calif.) using non-linear regression, and IC₅₀ values were calculated (FIG. 7 and Table 13).

[4] = target: T3, Human TIGIT protein with HIS tag (human, UniProt Q495A1 22-141); experiment: SPR Biacore T200; antibody Fc-captured, TIGIT-His analyte
T3 construct: A soluble analyte is probably only the extracellular part; also called human TIGIT recombinant protein; not shown: HIS tag
T3 sequence: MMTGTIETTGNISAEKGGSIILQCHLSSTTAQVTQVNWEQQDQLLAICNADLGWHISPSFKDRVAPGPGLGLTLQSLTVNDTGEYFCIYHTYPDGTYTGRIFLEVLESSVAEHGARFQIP
Procedure: Binding kinetics of the chimeric anti-human TIGIT monoclonal antibodies and the humanized anti-human TIGIT monoclonal antibodies to human TIGIT were determined using a Surface Plasmon Resonance (SPR) biosensor, BIACORE® T200 (GE Healthcare). Different concentrations of the chimeric anti-human TIGIT monoclonal antibodies or humanized anti-human TIGIT monoclonal antibodies were prepared starting at 50 nM with a 3-fold serial dilution. Each chimeric anti-human TIGIT monoclonal antibody or each humanized anti-human TIGIT monoclonal antibody was immobilized on the sensor chip through the Fc capture method. Human TIGIT protein with a HIS tag was used as the analyte. The dissociation (kd) and association (kₐ) rate constants were obtained using the BIACORE® T200 evaluation software. The apparent equilibrium dissociation constants (KD) were calculated from the ratio of kd over kₐ.

[5] = target: T1, human TIGIT over-expressed on cells; experiment: FACS, CHO-K1 cells over-expressing human TIGIT
Procedure: as §1

[6] = target: T1, human TIGIT over-expressed on cells; experiment: competition FACS, CHO cells expressing human TIGIT; competitor PVR recombinant protein (column headed EC50, text says IC50)
Procedure: as §2

B1: 100C4E7D11 chimeric (antibody, V domains shown)
VH: EVMLVESGGGLVKPGGSLKLSCAASGFTFSFYTMSWVRQTPEKRLEWVATISSGGGSTYYSDSVKGRFTISRDNAKNNLYLQMTSLRSEDTALYYCSRSLPVDYWGQGTTLTVSS
VL: QIVLTQSPAIMSASLGERVTMTCTASSSVSSTYLHWYQQKPGSSPKLWIYSTSNLASGVPARFSGSGSGTSYSLTISSMEAEDAATYYCHLYHHSPYTFGGGTKLEIK
notes: also called 100C4 Chimeric
IL-2 secretion in T cell activation, Bottom (best-fit) [1]: 247
IL-2 secretion in T cell activation, EC50 [1]: 2.14 nM
IL-2 secretion in T cell activation, Top (best-fit) [1]: 419
Bottom (best-fit) [2]: 4880
EC50 [2]: 1.03 nM
Top (best-fit) [2]: 23700
Bottom (best-fit) [3]: 170
Top (best-fit) [3]: 678
Kd [4]: 0.17 nM
koff [4]: 0.00016 s⁻¹
kon [4]: 910000 M⁻¹ s⁻¹
Bottom (best-fit) [5]: 4160
EC50 [5]: 0.58 nM
Top (best-fit) [5]: 25600
IC50 [6]: 0.49 nM
